Data published in paper PMC11257983 (2024).
Each block holds one molecule with its values, some of them ahead of it.

Legend:
[1] = target: CNK^SAM R46F (Flag-CNK^2–549 assumed); assay: GST pull-down, immunoblot quantification; details: S2 cells, Flag-CNK2–549, V5-KSR, Myc-MEK, GST-HYP co-expressed, captured via GST-HYP, parent: 1.00
[2] = target: endogenous CNK (anti-CNK blot, no CNK construct transfected); assay: anti-V5 immunoprecipitation, immunoblot quantification; details: S2 cells; V5-KSR and Myc-MEK co-expressed; anti-CNK blot (band near 180 kDa); parent: 1.00
[3] = target: CNK^CRIC Q84E (Flag-CNK^2–549 assumed); assay: GST pull-down, immunoblot quantification; details: S2 cells, Flag-CNK2–549, V5-KSR, Myc-MEK, GST-HYP co-expressed, captured via GST-HYP, parent: 1.00
[4] = target: CNK^SAM Y76R (Flag-CNK^2–549 assumed); assay: GST pull-down, immunoblot quantification; details: S2 cells, Flag-CNK2–549, V5-KSR, Myc-MEK, GST-HYP co-expressed, captured via GST-HYP, parent: 1.00
[5] = target: CNK^CRIC N96E (Flag-CNK^2–549 assumed); assay: GST pull-down, immunoblot quantification; details: S2 cells, Flag-CNK2–549, V5-KSR, Myc-MEK, GST-HYP co-expressed, captured via GST-HYP, parent: 1.00
Flag-CNK^2–549 = Flag-CNK^2–549 (UniProt Q7KNQ9); assay: GST pull-down, immunoblot quantification; details: S2 cells, Flag-CNK2–549, V5-KSR, Myc-MEK, GST-HYP co-expressed, captured via GST-HYP, parent: 1.00
Chain of Flag-CNK^2–549 (Q7KNQ9 entry or part of it): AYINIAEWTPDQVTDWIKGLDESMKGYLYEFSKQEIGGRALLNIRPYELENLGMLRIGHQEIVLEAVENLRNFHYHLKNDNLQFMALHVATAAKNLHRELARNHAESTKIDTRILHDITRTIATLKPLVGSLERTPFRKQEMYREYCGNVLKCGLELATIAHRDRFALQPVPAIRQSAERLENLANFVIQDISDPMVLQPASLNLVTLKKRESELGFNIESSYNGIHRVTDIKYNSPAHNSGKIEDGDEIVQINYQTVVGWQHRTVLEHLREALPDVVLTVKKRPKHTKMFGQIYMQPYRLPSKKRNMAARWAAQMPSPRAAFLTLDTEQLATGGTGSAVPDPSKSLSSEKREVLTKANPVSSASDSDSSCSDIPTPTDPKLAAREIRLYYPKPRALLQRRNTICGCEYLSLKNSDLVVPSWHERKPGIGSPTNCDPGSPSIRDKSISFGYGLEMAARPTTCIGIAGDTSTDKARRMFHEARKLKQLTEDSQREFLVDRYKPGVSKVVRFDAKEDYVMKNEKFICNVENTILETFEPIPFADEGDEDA

V5-KSR R913E, Q24171 = target: T1, V5-KSR R913E, Q24171; assay: anti-V5 immunoprecipitation, immunoblot quantification; details: chain shown with the change; S2 cells; V5-KSR and Myc-MEK co-expressed; anti-Myc (MEK) blot; parent: 1.00
T1 chain: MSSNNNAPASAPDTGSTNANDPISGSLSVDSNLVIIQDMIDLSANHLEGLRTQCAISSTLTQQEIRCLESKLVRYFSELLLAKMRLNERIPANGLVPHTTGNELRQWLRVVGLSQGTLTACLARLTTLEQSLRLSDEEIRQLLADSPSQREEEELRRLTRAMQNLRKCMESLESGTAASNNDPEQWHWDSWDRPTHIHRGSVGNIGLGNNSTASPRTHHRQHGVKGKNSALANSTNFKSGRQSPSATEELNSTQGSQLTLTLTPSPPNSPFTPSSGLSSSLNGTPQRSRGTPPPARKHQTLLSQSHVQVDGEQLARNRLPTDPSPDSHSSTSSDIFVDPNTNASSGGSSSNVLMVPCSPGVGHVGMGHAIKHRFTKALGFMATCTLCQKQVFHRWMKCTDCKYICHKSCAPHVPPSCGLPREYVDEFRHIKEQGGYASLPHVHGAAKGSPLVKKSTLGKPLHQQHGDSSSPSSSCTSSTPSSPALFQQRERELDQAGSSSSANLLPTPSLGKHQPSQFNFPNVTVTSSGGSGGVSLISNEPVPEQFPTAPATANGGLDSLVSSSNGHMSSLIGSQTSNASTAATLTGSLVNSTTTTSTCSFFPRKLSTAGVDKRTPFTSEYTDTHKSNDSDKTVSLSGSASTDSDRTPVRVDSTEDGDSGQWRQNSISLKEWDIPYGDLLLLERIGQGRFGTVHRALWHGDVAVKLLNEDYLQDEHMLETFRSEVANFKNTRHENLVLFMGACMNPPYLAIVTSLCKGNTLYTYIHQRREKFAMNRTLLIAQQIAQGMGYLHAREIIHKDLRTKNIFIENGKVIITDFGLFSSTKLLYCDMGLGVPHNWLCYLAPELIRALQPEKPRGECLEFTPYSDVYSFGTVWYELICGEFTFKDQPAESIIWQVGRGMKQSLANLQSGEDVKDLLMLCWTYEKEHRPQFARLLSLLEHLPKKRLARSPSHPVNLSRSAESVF

Molecule: m6; m8 MEK:E323R; CNK:R46F
ratio to parent ([1]; anti-Myc (MEK) blot): 0.2
ratio to parent ([1]; anti-V5 (KSR) blot): 0.23

Molecule: V5-KSR (from UniProt Q24171) K903D
ratio to parent [2]: 0.26

Molecule: m6; m8 MEK:E323R; CNK:Q84E
ratio to parent ([3]; anti-Myc (MEK) blot): 0.02
ratio to parent ([3]; anti-V5 (KSR) blot): 0.05

Molecule: m5; m8 KSR:R913E; CNK:Q84E
ratio to parent ([3]; anti-Myc (MEK) blot): 0.1
ratio to parent ([3]; anti-V5 (KSR) blot): 0.13

Molecule: V5-KSR (from UniProt Q24171) Y925D
ratio to parent [2]: 0.25

B1: m6; m5 MEK:E323R; KSR:R913E (protein)
chain: MSKNKLNLVLPPVNTEATVAAATVAPTPPFKTPSGTDTHSLLGKPKTSIDALTETLEGLDMGDTERKRIKMFLSQKEKIGELSDEDLEKLGELGSGNGGVVMKVRHTHTHLIMARKLIHLEVKPAIKKQILRELKVLHECNFPHIVGFYGAFYSDGEISICMEYMDGGSLDLILKRAGRIPESILGRITLAVLKGLSYLRDNHAIIHRDVKPSNILVNSSGEIKICDFGVSGQLIDSMANSFVGTRSYMSPERLQGTHYSVQSDIWSLGLSLVEMAIGMYPIPPPNTATLESIFADNAEESGQPTDEPRAMAIFELLDYIVNRPPPKLEHKIFSTEFKDFVDICLKKQPDERADLKTLLSHPWIRKAELEEVDISGWVCKTMDLPPSTPKRNTSPN
ratio to parent (V5-KSR R913E, Q24171): 1.01

Further lines, results first:

ratio to parent [2]: 0.13
Molecule: V5-KSR (from UniProt Q24171) M902D

ratio to parent ([4]; anti-Myc (MEK) blot): 0.06
ratio to parent ([4]; anti-V5 (KSR) blot): 0.09
Molecule: m6; m8 MEK:E323R; CNK:Y76R

ratio to parent [2]: 1.12
Molecule: V5-KSR (from UniProt Q24171) E926R

ratio to parent ([5]; anti-Myc (MEK) blot): 0.22
ratio to parent ([5]; anti-V5 (KSR) blot): 0.27
Molecule: m6; m8 MEK:E323R; CNK:N96E

ratio to parent (Flag-CNK^2–549; anti-Myc (MEK) blot): 0.41
ratio to parent (Flag-CNK^2–549; anti-V5 (KSR) blot): 0.41
Molecule: m5; m6 KSR:R913E; MEK:E323R

ratio to parent [2]: 0.29
Molecule: V5-KSR (from UniProt Q24171) W896R
